This note sets out measurements from patent US12539272B2, “Microemulsion-based vaccine delivery system, preparation method therefor and use thereof” (Sichuan University, priority 2020, dated 2026).

Assay [1] has as its system DC2.4 cells. Kind of assay: Uptake of the microemulsion vaccine system by the DC2.4 cells (flow cytometer). The class given is cell-based. Particulars: 1.5 hours at 37° C. As to the method:
Uptake of the aluminum hydroxide microemulsion vaccine system by the DC2.4 cells: 1×10^6 DC2.4 cells are implanted in each well of a 12-well plate, put into an incubator for 4-6 hours, 5 μg of FITC labeled OVA or the aluminum hydroxide microemulsion entrapping the same amount of the FITC labeled OVA and prepared according to embodiment 6 are added into each well after cell anchorage. Supernatants are discarded after uptake for 1.5 hours at 37° C., cell surfaces are washed with PBS two times slightly, and then directly blown with the PBS, and the cells are centrifugally washed twice at 2000 rpm for 3 min, finally re-suspended by using 400 μl of PBS, and tested by a flow cytometer. […] In the figure, the Free OVA represents free FITC labeled OVA, and NE-OVA represents the aluminum hydroxide microemulsion entrapping the FITC labeled OVA.
Uptake of the ferric hydroxide microemulsion vaccine system by the DC2.4 cells: 1×10^6 DC2.4 cells are implanted in each well of a 12-well plate, and put into an incubator for 4-6 hours, and 2 μg of FITC labeled melanoma antigen peptide GP100 (ITDQVPFSV) or the ferric hydroxide microemulsion entrapping the same amount of the FITC labeled melanoma antigen peptide GP100 (ITDQVPFSV) prepared according to embodiment 9 is added into each well after cell anchorage. […]
(A flow cytometer gives signals particle by particle.)

The test system of assay [2] is mice. Kind of assay: Cytotoxic T lymphocyte (CTL) test by CFSE staining method in immunized mice. The class given is in vivo. Particulars: 25 μl into paws of mice on Day 0, 7, 14; 5 μg OVA, 0.5 μg CpG; CTL on Day 21. As to the method:
Cytotoxic T lymphocyte (CTL) test and immune antibody testing of the aluminum hydroxide microemulsion vaccine system: 25 μl of the aluminum hydroxide microemulsion entrapping OVA and prepared in embodiment 6, the aluminum hydroxide microemulsion entrapping OVA and CpG and prepared in embodiment 7, and free OVA or free OVA and CpG (including 5 μg of OVA and 0.5 μg of CpG) are injected into paws of immunized mice on Day 0, Day 7 and Day 14, and CTL response in the body is tested by a CFSE staining method on Day 21. […] In the figure, OVA represents free OVA, NE-OVA represents the aluminum hydroxide microemulsion entrapping OVA, OVA+CpG represents free OVA and CpG, and NE-OVA-CpG represents the aluminum hydroxide microemulsion entrapping OVA and CpG.

“melanoma antigen peptide GP100 (ITDQVPFSV) [Free-GP100, reference compound]”: in assay [1] (2 μg FITC labeled GP100 per well), the “uptake by the DC2.4 cells (in words)” value is on record as “barely taken up”.

B1: chicken ovalbumin (protein, UniProt P01012 2-386, looked up)
Ovalbumin: GSIGAASMEFCFDVFKELKVHHANENIFYCPIAIMSALAMVYLGAKDSTRTQINKVVRFDKLPGFGDSIEAQCGTSVNVHSSLRDILNQITKPNDVYSFSLASRLYAEERYPILPEYLQCVKELYRGGLEPINFQTAADQARELINSWVESQTNGIIRNVLQPSSVDSQTAMVLVNAIVFKGLWEKAFKDEDTQAMPFRVTEQESKPVQMMYQIGLFRVASMASEKMKILELPFASGTMSMLVLLPDEVSGLEQLESIINFEKLTEWTSSNVMEERKIKVYLPRMKMEEKYNLTSVLMAMGITDVFSSSANLSGISSAESLKISQAVHAAHAEINEAGREVVGSAEAGVDAASVSEEFRADHPFLFCIKHIATNAVLFFGRCVSP
modifications: FITC label in uptake test
notes: free model antigen chicken ovalbumin (OVA); FITC labeled in the uptake test
For the molecule B1, the “uptake by the DC2.4 cells (in words)” value in assay [1] (5 μg FITC labeled OVA per well) is given as “barely taken up”. The “antigen-specific cellular immune response (CTL)” value in assay [2] is “cannot induce the antigen-specific cellular immune response”.
